Source: the nanobody polyreactivity screen of Harvey et al. (2022)

Assay: yeast display, Sf9 membrane polyspecificity reagent, FACS + sequencing; frameworks hold sequencing errors
In short: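 Sorting gates, low and high (top ~1%), were placed on anti-HA fluorescence to track expression and on streptavidin fluorescence to track reagent binding. A clone's polyreactivity label is taken from the gate it came out of. The reagent was 10% biotinylated, detergent-solubilized Sf9 membrane, applied for 1 hour at 4 °C to galactose-induced yeast display cells.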

| Sequence | polyreactivity (PSR sort gate) |
| --- | --- |
| QVQLVESGGGLVQAGGSLRLSCAASGRTFNIYAMGWYRQAPGKERELVAAISSGGSTYYADSVKGRFTISRDNAKNTVYLQMNSLKPEDTAVYYCAAVEFELRGDYWGQGTQVTVSS | low polyreactivity |
| QVQLVESGGGLVQAGGSLRLSCAASGFIFRYYAMGWYRQAPGKEREFVAAISRSGSSTYYADSVKGRFTISRDNAKNTVYLQMNSLKPEDTAVYYCNARKYRKGYGYWGQGTQVTVSS | high polyreactivity |
| QVQLVESGGGLVQAGGSLRISCAASGSTFWYYAMGWYRQAPGKERELVAVINSGGITNYADSVKGRFTISRDNAKNTVYLQMNSLKPEDTAVYYCNKRLYWGYGEMDYWGQGTQVTVSS | low polyreactivity |
| QVQLEESGGGLVQAGGSLRLSCAASGSIFQSYDMGWYRQAPGKERELVAAISWSGSTTYYADSVKGRFTISRDNAKNTVYLQMNSLKPEDTAVYYSAVDSNPPDWWAVIYGYWGQGTQVTVSS | low polyreactivity |
| QGHLVESGGGLVQAGGSLRLSCAASGVTFYTYDMGWYRQAPGKERELVAGIDWSGGSTYYADSVNGRFTISRDNAKNTVDLLMNSLKPEYTAVYYCASDYYYASQMDYWGQGTQVTVSS | low polyreactivity |
| QVQLVESGGGLVQAGGSLRLSCAASGFTFDYYAMGWYRQAPGKERELVAAINYSGGSTYYADSVKGRFTISRDNAKNTVYLQMNSLKPEDTAVYYCNAVGYSVFRRYNYWGQGTQVTVSS | high polyreactivity |
| QVQLLESGGAIVQAGGSHRLSCAASGSIFTHYAMGWYRQATGKERELVAGITSSGGSTYADSVKGRFTISRDNAKNSVYLQMISLKPEDTAVYYCAAEQLRSRLIEYDYWGQGTQVTVSS | low polyreactivity |
| QDQLVESAGGLLQAGGSLRLSCAASGSTFKYNAMGWYRQAPGKERELVDSITRGGNTNYADSVKGRFTISRDNAKNTVYLLMNSLKTEDTAFYYCAAQLMRDLRSPYSYNYWGQGTQVTVSS | low polyreactivity |
| QVQLVESGGGFVQAGGSLRLSCAASGFIFDTYAMGWYRQAPGKERELVAAITTTGGSTYYADSVKGRFTISRDTAKNTVYLQMNSLKPEDTAVYYCAARHYRIHYDYWGQGSQVTVSS | high polyreactivity |
| QVQLVESGGGLVHAGGSLRLSCAASGRTLWYYTMGWYRQAPGKEMELVADITRGTSTNYADSVKGRFTISRDNAKNTVYLQMNILKPEDTAVYYCNRAHGRSRYSRDYDSWGQGTQVTVSS | low polyreactivity |
| QVQLVESGRGLVQAGGSLRLICAASRSIFSYNAMGWYRQAPGKERELVAAIRRGGGTYYADSVKGRFTISRDNAKNTVYLQMISLKPEDTAVYYCNAVRGNNFLGDGYWGLGTQVTVSS | high polyreactivity |
| QVQLVESGGGVVQAGGSLRLSCAASGFIFYYNTMGWYRQAPGKERELVASMTWSGDTTYYADSVKGRFTISRDNAKNTVYLQMNSLTPEDTAVYYCAAVHYDPYRRYDYWGQGTQVTVSS | low polyreactivity |
| QVQLVESGGGLVQAGGSLRLSCAASGSIFSFYAMGWYRQAPGKERELVAAITSDGSTDYADSVKGRFTISRDNAKNTVYLQMNSLKPEDTAVYYCAADYIVRVVSRYRYGYEYWGQGTQVTVSL | low polyreactivity |
| QVQLVESGGGIVQAGGSLRLSCAASGSTFETNAMGRDRQAPGKERELVAAIRWSTGNTYYADSVNGRFTISRDNAKNTVYLQMNSLITEDTAVYYCAAYKAKHYKDGYWGQGTQVSVSS | low polyreactivity |
| QVQLVESGGGLVQAGGSLRLSCAASGSTFSFYTMGWYRQAPGKERELVAAISQSGTSTYYADSVKGRFTISRDNAKNTVFLQMNSLKPEDTAVYYCATVRKFYFHTRWYYYEGGYWGQGTQVTVSS | high polyreactivity |
| QVKLVETGGGLVQAGGSLRLSSAASGTTFVHYDMGWYRQAPGNERELVAAISRSGASTYYADSVKGRFTISRDHAKNTVYLQMNSLKPDDTAVYYCATIKYYGRRFNYWGQGTQVTVSS | high polyreactivity |

| Sequence | polyreactivity (PSR sort gate) |
| --- | --- |
| QVQLVESGGGLVQAGGSLRLSCAASGRTFYKNTMGWYRQAPGKERELVATITRRGGTTYYADSVKGRFTISRDKAKNTVYLQMNSLKPEDTAVYYCAKDASTEKYDYWGQGTQVTVSS | low polyreactivity |
| QVQLVQSGGGLVQAGGSLRLSCDASGSMFLVYAMGWYRQAPGKERELVAAISRSGRTYADSVKGRFTISRDNAKNTVYLQMNSLKPEDTAVYYCAAGTKRRFEGDYWVQGTQVTVSS | high polyreactivity |
| QVQLVESGGGLVQAGGSLRLSCAASGSIVRYYAMGWYRQAHGKEREFVAAISWSGGSTYYADSVKGRFTISRDNAKKTVYLQRNSLKPEDTAVFFCATTPGVWSTGGTNGFGYWGQGTQVTVSS | high polyreactivity |
| QVQLVESGGGLVQAGGSLRLSCAASGSIFGKYAMGWYRQAPGKERELVAAISWSGGSTYYADSVKGRFTISRDNAKNTVYLQMNSLKPEDTAVYYCAKRRVYYGSRYNYWGQGTQVTVSS | high polyreactivity |
| QVQLVESGGGLVQAGGSLRLSCAASGSIFGLYAMGWYRQAPGKERELVARITRSGGRTYYADSVKGRFTISRDNAKNTVYLQMNSLKPEDTAVYYCNKLLPSYVLPDDYWGQGTQVTVSS | low polyreactivity |
| QVQLVESGGGLVQAGGSLRLSCAASGSTFAPYAMGWYRQAPGKETELVARITGSGGGTTYADSVKGRFTISRDNAKNTVYLQMNSLKPEDTAVYYCAAPRASQYGDDYWGQGTQVTVSS | high polyreactivity |
| QVQLVESGGGIVQAGGSLRLSCAASGIIFSANAMGWYRQAPGKERELVAAISRAGSTNYADYVKGRFTISRDNAKNTVYLQMNSLKPEDTAVYYCAAGGGFYFIWTMDYWGQGTQVTVSS | low polyreactivity |
| QFQLVESGGGLVQAGGSLRLSCAASGSIFDIYAMGWYRPAPGKERELVADITISGGSTYYADSVKGRFTISRDNAKNTVYLQLNSLIPEDTAVYYCAADVTVVLGYKYDYWGQGTQVTVSS | low polyreactivity |
| QVELVESGAGLVQAGGSLRLSCAASGRIFRYYVKGWYRQAPGKESELVAAISSGGSTNYADSVKGRFTISRDNAKNTVYLQMNSLKPEDTAVYYCNRDIGGSSVLDDYWGQGTQVTVSS | low polyreactivity |
| QVQLVESGGGLVQAGGSLRLSCAASGSTLIEYAKGWYRQAPGKERELVARISKSGDSTYYADSVKGRFTISRDNAKNTVYLQMNSLKPEDTAVYYCAKYHRDGFYRSYWFRYDYWGQGTQVTVSS | low polyreactivity |
| QVQLVESGGGLVQAGGSLRLSCAASGYTFDAYAMGWYRQAPGKERELVAAITTNGGSTYYADSVKGRFTISRDNAKNTVYLQMNSLKPEDTAVYYCNAEYWYEGRYPYDYWGQGTQVTVSS | low polyreactivity |
| QVQLVESGGGLVQAGGSLRLSCSAYGSILWYNAMGWYRQAPGKERELVAAINRGGSTNYADSVKGRFTISRDNAKNTVYLQMNSLKPEDTAVYYCAADRLLVSAGGVQFDYWGQGTQVTVSS | low polyreactivity |
| QVQLVESGGGLVQAGGSLSLSCAASGRITRFNAMGWYRQAPGKERELVAAITRGASTYYADSVKGRFTISRDNAKNSVYLQMNRLKQEDTAVYYCAAAPRYSWTSVARYDYWGQGTQVTVSS | high polyreactivity |
| QVQLVESGGGLVQAGGSLRLSCAASGSIFSSYVMVWYRQAPGKERELVAAISSSGGSTYYADSVKGRFTISRDNAKNTVYLQMNSLKPEDTAVYYCAARSYYSYYLMYYWGQGTQVTVSS | high polyreactivity |
| QVQLVESGGGLVQAGGSLRLSCAASGSIFSYYAMGWYRQAPGKERELVATISWSGGSTYYADSVKGRFTISRDNAKNTVYLQMNSLKPEDTAVYYCAARKYGQRYRRDYWGQGTQVTVSS | low polyreactivity |
| QVQLVESGGGLVQAGGSLRLSCAASAAIFTKNAMGWYRQAPAKERELVAAITGSGASTYYADSVKGRFTISRDNAKNTVYLQMNSLKPEDTAVYYCNTDSPYGWEGEFDYWGQGTQVTVSS | high polyreactivity |
